This note sets out measurements from the RNAGym collection of RNA variant scans (doi:10.1093/nar/gkz1192).

B1: CPEB3 Ribozyme (parent)
chain: UAACAGGGGGCCACAGCAGAAGCGUUCACGUCGCAGCCCCUGUCAGAUUCUGGUGAAUCUGCGAAUUCUGCUGUAUAUCUC

Variants of B1 are the subject of this data set. Kind of data set: self-cleavage, relative activity (ratio to wild type); higher = more cleavage; in vitro, sequencing. The gist of the method: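 Relative activity was defined as the cleaved/total read fraction for a variant divided by the same fraction for the unmutated ribozyme. CPEB3 self-cleaving ribozyme libraries were made by rounds of error-prone PCR, barcoded, and transcribed in vitro with T7 RNA polymerase for 5 hours at 37°C, and cleavage ran through transcription plus a 15 min DNase I step before EDTA. Illumina sequencing of template-switched reverse transcripts gave the reads, and DNA sequencing mapped the barcodes. Averages come from three batches, using variants with at least 5 reads.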
On to A18G U72A, for which the self-cleavage was determined as 0.35.

Consider A18G U51G, for which the self-cleavage came out at 0.77.

In the case of A18G U51A, the self-cleavage amounted to 0.74.

In the case of A18G U51C, the self-cleavage amounted to 0.48.

A18C U41A: the self-cleavage amounted to 0.32.

With A18C U41C, the self-cleavage was determined as 0.34.

Turning to A18C U41G, the self-cleavage is 0.53.

As to A18C U72C, the self-cleavage amounted to 0.46.

With A18C U72G, the self-cleavage is 0.12.

As to A18C U72A, the self-cleavage stood at 0.16.

As to A18G A56U, the self-cleavage was determined as 0.35.

On to A18G A56C, for which the self-cleavage was found to be 0.25.

A18G A56G: the self-cleavage was determined as 0.55.

On to A18U A75G, for which the self-cleavage turned out to be 0.38.

A18U A75U: the self-cleavage came out at 0.5.

Turning to A18U C59U, the self-cleavage stood at 0.23.

In the case of A18U C59A, the self-cleavage was 0.17.

As to A18U C59G, the self-cleavage was determined as 0.15.

For the variant A18U A77G, the self-cleavage is 0.51.

Turning to A18U A77U, the self-cleavage was 0.48.

In the case of A18U A20U, the self-cleavage was 0.25.

For A18U A20G, the self-cleavage was 0.34.

Take A18G C32G: the self-cleavage is 0.1.

A18G C32U: the self-cleavage turned out to be 0.2.

For the variant A18G C32A, the self-cleavage was found to be 0.15.

A18U A28G: the self-cleavage was determined as 0.26.

In the case of A18U A28C, the self-cleavage came out at 0.15.

Regarding A18U A28U, the self-cleavage came out at 0.29.

For the variant A18C U67C, the self-cleavage worked out at 0.18.

For the variant A18U C29A, the self-cleavage is 0.19.

A18U C29U: the self-cleavage was 0.17.

In the case of A18U A56C, the self-cleavage was found to be 0.21.

As for A18U A56U, the self-cleavage is 0.31.

For the variant A18U A56G, the self-cleavage came to 0.3.

In the case of A18U U80A, the self-cleavage turned out to be 0.53.

On to A18U U80G, for which the self-cleavage came to 0.51.

Consider A18U U80C, for which the self-cleavage is 0.52.

As for G19A A20U, the self-cleavage worked out at 0.11.

In the case of A18G U76A, the self-cleavage turned out to be 0.73.

For A18G U76C, the self-cleavage was found to be 0.58.

In the case of A18U U58C, the self-cleavage was determined as 0.32.

Turning to A18U U58G, the self-cleavage was found to be 0.03.

As to A18U U58A, the self-cleavage was found to be 0.19.

Take A18G C71G: the self-cleavage stood at 0.27.

As for A18G C71A, the self-cleavage stood at 0.29.

Consider A18G C71U, for which the self-cleavage amounted to 0.28.

Turning to A18G G24C, the self-cleavage stood at 0.28.

Turning to A18G G24A, the self-cleavage was 0.15.

A18U A64G: the self-cleavage came out at 0.31.

With A18U A64U, the self-cleavage stood at 0.28.

As for A18U G70U, the self-cleavage was found to be 0.21.

Consider A18U G33A, for which the self-cleavage worked out at 0.3.

For the variant A18U U67A, the self-cleavage worked out at 0.21.

Consider A18U U67G, for which the self-cleavage was found to be 0.19.

For A18U U67C, the self-cleavage worked out at 0.26.

As to A18U G61U, the self-cleavage was determined as 0.28.

A18U G61C: the self-cleavage came out at 0.14.

With A18U G61A, the self-cleavage was determined as 0.3.

As for A18G C68A, the self-cleavage amounted to 0.21.

Consider A18G C68U, for which the self-cleavage was 0.52.

In the case of A18C U80C, the self-cleavage is 0.54.

As to A18C U80A, the self-cleavage amounted to 0.54.

On to A18G A75G, for which the self-cleavage came to 0.57.

On to A18G A75U, for which the self-cleavage is 0.82.

Take A18G A75C: the self-cleavage was found to be 0.91.

Take A18U A21C: the self-cleavage came out at 0.2.

With A18U A21U, the self-cleavage is 0.28.

Take A18U A21G: the self-cleavage was determined as 0.25.

In the case of A18G A28U, the self-cleavage worked out at 0.5.

On to A18G A28G, for which the self-cleavage is 0.33.

For the variant A18G A28C, the self-cleavage was 0.38.

On to A18G U26A, for which the self-cleavage is 0.48.

On to A18G U26C, for which the self-cleavage amounted to 0.33.

Consider A18G G73A, for which the self-cleavage was 1.24.

Turning to A18U G55A, the self-cleavage stood at 0.29.

On to A18U G55U, for which the self-cleavage is 0.41.

A18U U48A: the self-cleavage turned out to be 0.19.

A18U U48C: the self-cleavage is 0.28.

With A18C G42A, the self-cleavage stood at 0.17.

Regarding A18G G22A, the self-cleavage is 0.24.

As to A18G G22U, the self-cleavage was found to be 0.22.

On to A18G G22C, for which the self-cleavage came out at 0.24.

For the variant G19A A57G, the self-cleavage is 0.26.

In the case of A18U U69C, the self-cleavage turned out to be 0.47.

A18U U69G: the self-cleavage is 1.14.

On to A18U U69A, for which the self-cleavage turned out to be 1.19.

For A18G U67C, the self-cleavage stood at 0.26.

For the variant A18G U67G, the self-cleavage was determined as 0.28.

With A18G U67A, the self-cleavage stood at 0.31.

Turning to A18G A64G, the self-cleavage is 0.43.

For A18G A64U, the self-cleavage worked out at 0.29.

For the variant A18G U49C, the self-cleavage stood at 0.29.

Turning to A18G U49A, the self-cleavage came out at 0.32.

As to A18G A57C, the self-cleavage amounted to 0.49.

In the case of A18G A57G, the self-cleavage came out at 0.55.

Regarding A18G A57U, the self-cleavage amounted to 0.36.

On to A18U C81G, for which the self-cleavage amounted to 0.27.

In the case of A18U C81A, the self-cleavage was found to be 0.69.

In the case of A18U C81U, the self-cleavage amounted to 0.51.

Turning to A18U C68A, the self-cleavage was found to be 0.2.

Turning to A18G G70A, the self-cleavage came to 0.37.

For the variant A18G G70C, the self-cleavage worked out at 0.13.

Turning to A18G C38U, the self-cleavage amounted to 0.73.

As for A18G A65G, the self-cleavage stood at 0.34.

Consider A18G A65U, for which the self-cleavage was found to be 0.38.

In the case of A18G G63U, the self-cleavage stood at 1.02.

Regarding A18G G63A, the self-cleavage came out at 0.51.

Take A18G G63C: the self-cleavage was found to be 0.55.

As to A18U C40A, the self-cleavage was 0.13.

Consider A18U C40G, for which the self-cleavage came out at 0.18.

A18U C40U: the self-cleavage was 0.45.

On to A18U C62U, for which the self-cleavage was 0.33.

For A18U C62G, the self-cleavage worked out at 0.27.

On to A18U C62A, for which the self-cleavage worked out at 0.28.

On to A18G A20G, for which the self-cleavage worked out at 0.49.

Regarding A18G A20U, the self-cleavage was determined as 0.27.

A18U G22U: the self-cleavage was 0.24.

Take A18C U66C: the self-cleavage amounted to 0.21.

With A18C U43G, the self-cleavage was 0.07.

On to A18C U43A, for which the self-cleavage was 0.64.

Take A18C U43C: the self-cleavage was determined as 0.21.

For A18G A35G, the self-cleavage came out at 1.06.

As for A18G A35C, the self-cleavage came to 0.38.

With A18G A35U, the self-cleavage came to 0.27.

A18U U41A: the self-cleavage is 0.22.

Consider A18U U41C, for which the self-cleavage is 0.38.

As for A18C U31A, the self-cleavage is 0.19.

As for A18C U31C, the self-cleavage amounted to 0.28.

Turning to A18G C34G, the self-cleavage amounted to 0.08.

Take A18G C34U: the self-cleavage stood at 0.15.

With G19A A45U, the self-cleavage was found to be 0.07.

Regarding G19A A45G, the self-cleavage stood at 0.25.

For A18G G46U, the self-cleavage was 0.16.

On to A18G G46A, for which the self-cleavage was 0.35.

A18U C38U: the self-cleavage was determined as 0.31.

As to A18G G19U, the self-cleavage turned out to be 0.32.

For the variant A18G G19C, the self-cleavage turned out to be 0.2.

On to A18C U25C, for which the self-cleavage came out at 0.27.

With A18C U78C, the self-cleavage came to 0.4.

For the variant A18U C44G, the self-cleavage amounted to 0.24.

As to A18U C44U, the self-cleavage is 0.2.

Turning to A18U C44A, the self-cleavage was 0.15.

In the case of A18U C79A, the self-cleavage was 0.75.

For the variant A18U C79U, the self-cleavage was determined as 0.26.

Take A18U U76G: the self-cleavage was found to be 0.3.

For the variant A18U U76C, the self-cleavage was found to be 0.39.

Take A18U U76A: the self-cleavage was 0.36.

Turning to A18U A45G, the self-cleavage came out at 0.32.

With A18U A45C, the self-cleavage amounted to 0.16.

A18U A45U: the self-cleavage amounted to 0.25.

As for A18G G33U, the self-cleavage stood at 0.19.

As for A18G G33A, the self-cleavage is 0.23.

On to A18U U74C, for which the self-cleavage turned out to be 0.61.

Consider A18U U74A, for which the self-cleavage turned out to be 0.62.

For A18G U41C, the self-cleavage amounted to 0.68.

Take A18G U41G: the self-cleavage came to 0.42.

Turning to A18G U41A, the self-cleavage was determined as 0.26.

Turning to A18G G55A, the self-cleavage was 0.47.

Consider A18G G55U, for which the self-cleavage amounted to 0.7.

As for A18G U66C, the self-cleavage came to 0.29.

For A18G U66A, the self-cleavage was 0.31.

A18C U58A: the self-cleavage amounted to 0.21.

Consider A18C U58C, for which the self-cleavage stood at 0.3.

For A18U G24A, the self-cleavage worked out at 0.36.

Consider A18G U74C, for which the self-cleavage stood at 1.1.

Consider A18G U74A, for which the self-cleavage worked out at 0.95.

On to A18G U74G, for which the self-cleavage is 1.21.
